Values belong to the substance of their own block, whether it stands above or below them.
What was measured:
[1] = molecular target: human cMET (MET, c-Met, HGF receptor) on cells (human) (UniProt P08581); test: cell-based or functional assay
[2] = molecular target: human cMET (MET, c-Met, HGF receptor) on cells (human) (UniProt P08581); test: flow cytometry, inhibition of HGF (50 ng/mL) binding to BxPC3 cells
[3] = molecular target: human cMET (MET, c-Met, HGF receptor) on cells (human) (UniProt P08581); test: flow cytometry, inhibition of HGF (50 ng/mL) binding to MKN45 cells

human cMET (MET, c-Met, HGF receptor) on cells (human), sequence (P08581 25-1390): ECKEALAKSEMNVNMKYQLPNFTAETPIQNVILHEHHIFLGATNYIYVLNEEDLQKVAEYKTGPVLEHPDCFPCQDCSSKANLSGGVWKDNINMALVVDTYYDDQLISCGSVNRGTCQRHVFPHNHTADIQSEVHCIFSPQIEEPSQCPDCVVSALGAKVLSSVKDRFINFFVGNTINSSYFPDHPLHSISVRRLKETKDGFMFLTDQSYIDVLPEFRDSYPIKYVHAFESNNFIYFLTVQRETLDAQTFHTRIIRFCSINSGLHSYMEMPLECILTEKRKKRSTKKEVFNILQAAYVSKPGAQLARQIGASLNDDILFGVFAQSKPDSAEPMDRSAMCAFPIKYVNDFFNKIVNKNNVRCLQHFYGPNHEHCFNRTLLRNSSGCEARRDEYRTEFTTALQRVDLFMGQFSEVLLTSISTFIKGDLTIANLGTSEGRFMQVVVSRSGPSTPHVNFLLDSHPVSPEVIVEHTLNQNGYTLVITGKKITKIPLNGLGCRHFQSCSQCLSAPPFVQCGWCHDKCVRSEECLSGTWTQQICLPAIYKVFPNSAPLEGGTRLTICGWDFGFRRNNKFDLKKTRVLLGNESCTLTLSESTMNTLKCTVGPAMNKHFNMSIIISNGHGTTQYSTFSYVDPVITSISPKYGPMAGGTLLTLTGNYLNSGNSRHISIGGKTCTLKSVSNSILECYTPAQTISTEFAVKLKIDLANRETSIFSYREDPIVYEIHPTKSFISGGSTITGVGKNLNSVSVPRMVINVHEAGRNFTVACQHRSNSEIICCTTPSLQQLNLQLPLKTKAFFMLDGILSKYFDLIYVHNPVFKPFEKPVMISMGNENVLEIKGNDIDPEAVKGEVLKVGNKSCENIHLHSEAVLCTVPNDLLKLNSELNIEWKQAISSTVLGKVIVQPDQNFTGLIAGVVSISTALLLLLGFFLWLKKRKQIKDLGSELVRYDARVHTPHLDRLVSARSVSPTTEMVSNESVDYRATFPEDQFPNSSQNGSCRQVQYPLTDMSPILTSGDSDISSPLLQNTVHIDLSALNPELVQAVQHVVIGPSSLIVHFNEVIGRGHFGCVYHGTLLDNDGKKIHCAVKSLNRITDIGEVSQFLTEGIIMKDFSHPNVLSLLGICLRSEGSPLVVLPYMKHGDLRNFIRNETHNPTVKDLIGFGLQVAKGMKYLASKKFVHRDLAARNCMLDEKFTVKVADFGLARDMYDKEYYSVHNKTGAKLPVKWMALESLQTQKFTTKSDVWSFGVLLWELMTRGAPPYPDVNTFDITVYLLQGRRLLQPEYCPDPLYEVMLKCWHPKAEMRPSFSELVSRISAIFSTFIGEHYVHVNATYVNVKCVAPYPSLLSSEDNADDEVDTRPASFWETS

Substance: huIgG-SMCC-DM1 (antibody)
in vitro cytotoxicity in MET-expressing MKN45 cells, EC50 [1]: > 30 nM

% inhibition of HGF binding [2]: 50%
% inhibition of HGF binding [3]: 67%
Substance: 224G11 (antibody)

percent induction of NCI-H441 cell growth (WST-8), normalised to 100 ng/mL HGF [1]: 92%
Substance: 5D5 (antibody)

— patent publication US20180230218A1
